In the experiment the target is EMILIN1 gC1q domain, wild type (recombinant). Nature of the experiment: SDS-PAGE without boiling; purified gC1q (WT or mutant), incubated or not with NE at 37 °C, Laemmli buffer added, loaded on 4-20% gels without boiling to keep the trimer, Coomassie staining; trimer to monomers.

For “EMILIN1 gC1q domain, wild type (recombinant) (domain or fragment)”, the stoichiometry N came out at 3.

The values above are taken from article PMC5225433.
